Assay results taken from patent publication US20260139013A1 (VIB VZW, published 2026).

Molecular target: the molecule itself
Assay: cryo-EM structure of the self-assembled fiber (subunit to subunit)

B1: Ena1B-HI-Rubredoxin (other)
chain: MGNCSTNLSCCANGQKTIVQDKVCIDWTAAATAAIIYADNISQDIYASGYLKVDTGTGPVTIVFYSGGVTGTAVETIVVATGSSASFTVRRFDTVTILGGGKYVCTVCGYEYDPAEGDPDNGVKPGTSFDDLPADWVCPVCGAPKSEFEAAGAAETGEFCMTIRYTLS
notes: It was made in E. coli and studied as a self-assembled helical fiber of many identical subunits; The rubredoxin centre carried mostly zinc and some iron; also called Ena-HI-Rubredoxin; Ena1B-Rubredoxin-HI
Does B1 bind?
Result: binds
